According to the supplement of paper PMC9112550, “Optimization of the antimicrobial peptide Bac7 by deep mutational scanning” (BMC Biology, 2022):

Tested on: Escherichia coli TOP10
Test: shrunken log2 fold change of peptide-encoding DNA abundance (4.5 h post-induction vs induction); higher = less antimicrobial activity (less host growth inhibition)
Details: time post-induction: 4.5 h; library: site-saturation at positions 5, 18, 19, 20
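Further: peptides expressed intracellularly from a pBAD plasmid library in pooled LB shake-flask culture, induced with 0.3% L-arabinose, DNA abundance read by NGS, three biological replicates, DESeq2 with apeglm shrinkage.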

| Sequence | shrunken log2 fold change |
| --- | --- |
| RRIRGRPPRLPRPRPRPFEYPRP | 0.0664 |
| RRIRNRPPRLPRPRPRPIHQPRP | -0.189 |
| RRIRMRPPRLPRPRPRPNLSPRP | -0.436 |
| RRIRCRPPRLPRPRPRPWAAPRP | -0.0941 |
| RRIRDRPPRLPRPRPRPTFRPRP | -0.0707 |
| RRIRFRPPRLPRPRPRPLVPPRP | 0.338 |
| RRIRLRPPRLPRPRPRPMFEPRP | -0.00818 |
| RRIRGRPPRLPRPRPRPCAGPRP | 0.834 |
| RRIRMRPPRLPRPRPRPTCKPRP | 2.25 |
| RRIRERPPRLPRPRPRPIKGPRP | -0.0123 |
| RRIRDRPPRLPRPRPRPKHAPRP | 0.222 |
| RRIRYRPPRLPRPRPRPPAVPRP | -0.143 |
| RRIRQRPPRLPRPRPRPLKFPRP | -0.27 |
| RRIRCRPPRLPRPRPRPGMPPRP | -0.257 |
| RRIRWRPPRLPRPRPRPPVEPRP | 0.392 |
| RRIRGRPPRLPRPRPRPWAYPRP | -0.151 |
| RRIRPRPPRLPRPRPRPEKPPRP | -0.129 |
| RRIRLRPPRLPRPRPRPTASPRP | 0.0857 |
| RRIRFRPPRLPRPRPRPALHPRP | -0.0349 |
| RRIRYRPPRLPRPRPRPGPCPRP | -0.227 |
| RRIRQRPPRLPRPRPRPTTWPRP | -0.0695 |
| RRIRDRPPRLPRPRPRPACYPRP | -0.142 |
| RRIRDRPPRLPRPRPRPDFNPRP | -0.188 |
| RRIRFRPPRLPRPRPRPRWHPRP | 0.059 |
| RRIRKRPPRLPRPRPRPPYKPRP | -0.142 |

| Sequence | shrunken log2 fold change |
| --- | --- |
| RRIRHRPPRLPRPRPRPIKDPRP | -0.299 |
| RRIRHRPPRLPRPRPRPNHRPRP | -0.0366 |
| RRIRVRPPRLPRPRPRPPNAPRP | 0.295 |
| RRIRARPPRLPRPRPRPCSDPRP | 0.431 |
| RRIRPRPPRLPRPRPRPHYGPRP | -0.569 |
| RRIRERPPRLPRPRPRPFTWPRP | -0.737 |
| RRIRNRPPRLPRPRPRPEIFPRP | -0.0153 |
| RRIRFRPPRLPRPRPRPCRQPRP | 0.229 |
| RRIRHRPPRLPRPRPRPPTQPRP | 0.137 |
| RRIRIRPPRLPRPRPRPKCIPRP | -0.399 |
| RRIRTRPPRLPRPRPRPPLMPRP | -0.0314 |
| RRIRARPPRLPRPRPRPSRIPRP | 0.163 |
| RRIRGRPPRLPRPRPRPMYLPRP | 0.0702 |
| RRIRYRPPRLPRPRPRPHYVPRP | -0.208 |
| RRIRRRPPRLPRPRPRPRNCPRP | -0.0356 |
| RRIRSRPPRLPRPRPRPCREPRP | 0.157 |
| RRIRMRPPRLPRPRPRPSDRPRP | 0.0714 |
| RRIRYRPPRLPRPRPRPSWAPRP | -0.21 |
| RRIRTRPPRLPRPRPRPYIHPRP | -0.779 |
| RRIRFRPPRLPRPRPRPRRNPRP | 0.136 |
| RRIRWRPPRLPRPRPRPNRWPRP | 0.218 |
| RRIRFRPPRLPRPRPRPKCKPRP | 0.00614 |
| RRIRERPPRLPRPRPRPPMHPRP | -0.171 |
| RRIRKRPPRLPRPRPRPEQCPRP | 0.025 |
| RRIRVRPPRLPRPRPRPVMAPRP | 0.0266 |

| Sequence | shrunken log2 fold change |
| --- | --- |
| RRIRGRPPRLPRPRPRPQGDPRP | 0.824 |
| RRIRQRPPRLPRPRPRPRCHPRP | 0.118 |
| RRIRGRPPRLPRPRPRPGTYPRP | -0.201 |
| RRIRYRPPRLPRPRPRPQKRPRP | -0.0426 |
| RRIRGRPPRLPRPRPRPTYLPRP | 0.132 |
| RRIRYRPPRLPRPRPRPNECPRP | 0.0256 |
| RRIRMRPPRLPRPRPRPFWQPRP | 0.341 |
| RRIRARPPRLPRPRPRPATEPRP | 0.795 |
| RRIRDRPPRLPRPRPRPTTSPRP | 0.335 |
| RRIRIRPPRLPRPRPRPSNYPRP | -0.086 |
| RRIRNRPPRLPRPRPRPVSCPRP | -0.129 |
| RRIRERPPRLPRPRPRPMSLPRP | 0.0379 |
| RRIRRRPPRLPRPRPRPPWEPRP | 0.0894 |
| RRIRSRPPRLPRPRPRPPVKPRP | -0.136 |
| RRIRKRPPRLPRPRPRPECRPRP | 0.313 |
| RRIRKRPPRLPRPRPRPWATPRP | 0.546 |
| RRIRLRPPRLPRPRPRPTSFPRP | -0.0182 |
| RRIRARPPRLPRPRPRPTWSPRP | 0.67 |
| RRIRERPPRLPRPRPRPLDEPRP | -0.396 |
| RRIRARPPRLPRPRPRPHPCPRP | 0.206 |
| RRIRWRPPRLPRPRPRPAERPRP | 0.0973 |
| RRIRLRPPRLPRPRPRPGNLPRP | -0.137 |
| RRIRTRPPRLPRPRPRPQEIPRP | -0.187 |
| RRIRVRPPRLPRPRPRPAYPPRP | -0.179 |
| RRIRGRPPRLPRPRPRPPMEPRP | -0.0178 |

| Sequence | shrunken log2 fold change |
| --- | --- |
| RRIRVRPPRLPRPRPRPAWVPRP | 0.459 |
| RRIRSRPPRLPRPRPRPLHHPRP | -0.465 |
| RRIRLRPPRLPRPRPRPASEPRP | 0.159 |
| RRIRERPPRLPRPRPRPDKGPRP | -0.0116 |
| RRIRNRPPRLPRPRPRPSGGPRP | 0.0638 |
| RRIRYRPPRLPRPRPRPHQDPRP | -0.0582 |
| RRIRVRPPRLPRPRPRPVRCPRP | 0.145 |
| RRIRHRPPRLPRPRPRPHPPPRP | 0.261 |
| RRIRIRPPRLPRPRPRPLSAPRP | -0.112 |
| RRIRWRPPRLPRPRPRPSCKPRP | -0.183 |
| RRIRFRPPRLPRPRPRPKDQPRP | 0.0707 |
| RRIRFRPPRLPRPRPRPPGFPRP | 0.268 |
| RRIRVRPPRLPRPRPRPGNWPRP | 0.0971 |
| RRIRTRPPRLPRPRPRPIYSPRP | -0.571 |
| RRIRWRPPRLPRPRPRPKQRPRP | 0.473 |
| RRIRHRPPRLPRPRPRPRDEPRP | -0.0872 |
| RRIRSRPPRLPRPRPRPPWSPRP | 0.25 |
| RRIRHRPPRLPRPRPRPVPCPRP | 0.337 |
| RRIRVRPPRLPRPRPRPPKAPRP | 0.077 |
| RRIRFRPPRLPRPRPRPPEMPRP | 0.0471 |
| RRIRIRPPRLPRPRPRPTDSPRP | -0.237 |
| RRIRQRPPRLPRPRPRPGDQPRP | -0.0566 |
| RRIRGRPPRLPRPRPRPIWSPRP | 0.15 |
| RRIRMRPPRLPRPRPRPLKLPRP | 0.0525 |
| RRIRCRPPRLPRPRPRPMYKPRP | -0.471 |

| Sequence | shrunken log2 fold change |
| --- | --- |
| RRIRTRPPRLPRPRPRPRYCPRP | -0.116 |
| RRIRQRPPRLPRPRPRPHRWPRP | 0.057 |
| RRIRVRPPRLPRPRPRPIVNPRP | -0.11 |
| RRIRPRPPRLPRPRPRPGVKPRP | -0.0608 |
| RRIRVRPPRLPRPRPRPHPGPRP | -0.325 |
| RRIRWRPPRLPRPRPRPPKLPRP | 0.152 |
| RRIRYRPPRLPRPRPRPNSKPRP | -0.875 |
| RRIRCRPPRLPRPRPRPIWIPRP | -0.291 |
| RRIRDRPPRLPRPRPRPAIKPRP | 0.235 |
| RRIRVRPPRLPRPRPRPGWEPRP | 0.123 |
| RRIRARPPRLPRPRPRPLEKPRP | 0.439 |
| RRIRKRPPRLPRPRPRPNTMPRP | -0.209 |
| RRIRTRPPRLPRPRPRPMQYPRP | -0.0442 |
| RRIRQRPPRLPRPRPRPAVTPRP | 0.167 |
| RRIRWRPPRLPRPRPRPWAMPRP | 0.0321 |
| RRIRRRPPRLPRPRPRPLSNPRP | -0.0853 |
| RRIRYRPPRLPRPRPRPLRCPRP | 0.0617 |
| RRIRQRPPRLPRPRPRPWRHPRP | 0.0151 |
| RRIRKRPPRLPRPRPRPDHNPRP | -0.276 |
| RRIRDRPPRLPRPRPRPYVGPRP | -0.0122 |
| RRIRKRPPRLPRPRPRPWVGPRP | 0.0422 |
| RRIRSRPPRLPRPRPRPKMYPRP | -0.0737 |
| RRIRIRPPRLPRPRPRPQDAPRP | -0.449 |
| RRIRDRPPRLPRPRPRPGTSPRP | -0.0025 |
| RRIRMRPPRLPRPRPRPLSEPRP | 0.511 |

| Sequence | shrunken log2 fold change |
| --- | --- |
| RRIRKRPPRLPRPRPRPQHNPRP | -0.145 |
| RRIRGRPPRLPRPRPRPLQGPRP | 0.226 |
| RRIRMRPPRLPRPRPRPYIQPRP | -1.05 |
| RRIRTRPPRLPRPRPRPWPLPRP | 0.0506 |
| RRIRLRPPRLPRPRPRPKNVPRP | -0.124 |
| RRIRRRPPRLPRPRPRPAGIPRP | 0.352 |
| RRIRLRPPRLPRPRPRPFYLPRP | -0.572 |
| RRIRWRPPRLPRPRPRPQWAPRP | 0.829 |
| RRIRTRPPRLPRPRPRPQPRPRP | 0.439 |
| RRIRKRPPRLPRPRPRPFRKPRP | -0.304 |
| RRIRARPPRLPRPRPRPELQPRP | 0.731 |
| RRIRPRPPRLPRPRPRPQDPPRP | -0.135 |
| RRIRKRPPRLPRPRPRPYHMPRP | -0.0573 |
| RRIRPRPPRLPRPRPRPADSPRP | -0.0563 |
| RRIRLRPPRLPRPRPRPYEIPRP | -0.012 |
| RRIRKRPPRLPRPRPRPMSNPRP | -0.00773 |
| RRIRGRPPRLPRPRPRPARWPRP | 0.998 |
| RRIRMRPPRLPRPRPRPPKNPRP | 1.18 |
| RRIRRRPPRLPRPRPRPYFLPRP | -0.542 |
| RRIRHRPPRLPRPRPRPPVGPRP | 0.183 |
| RRIRFRPPRLPRPRPRPRGWPRP | 0.9 |
| RRIRCRPPRLPRPRPRPIMFPRP | -0.388 |
| RRIRIRPPRLPRPRPRPFMCPRP | -0.103 |
| RRIRWRPPRLPRPRPRPPWRPRP | 0.696 |
| RRIRFRPPRLPRPRPRPIEKPRP | -0.0389 |
